Measurements reported in US20050238642A1, “Modified bouganin proteins, cytotoxins and methods and uses thereof” (priority 2004, published 2005).

Legend:
[1] = system: tumor cell lines; assay: VB6-845 Tumor Cell Indications: binding for scFv 845 to tumor cell lines (median fluorescence)
Text: Tumor-targeting cytotoxins are composed of the variable region of an antibody linked to a bacterial, fungal or plant toxin. The present study illustrates that the deimmunized bouganin constructs of the invention, comprising deimmunized bouganin linked to a targeting moiety have reduced immunogenicity, while still retaining their biological activity.

[2] = target: T1, Ep-CAM (Epithelial Cell Adhesion Molecule) (human, UniProt P16422 24-314); assay: flow cytometry, 10 µg/mL VB6-845 on TOV-112G cells (ovarian; Ep-CAM status of the line not stated), anti-His detection; ± SEM
T1 construct: whole, on cells; also called 17-1A; KSA
T1 sequence: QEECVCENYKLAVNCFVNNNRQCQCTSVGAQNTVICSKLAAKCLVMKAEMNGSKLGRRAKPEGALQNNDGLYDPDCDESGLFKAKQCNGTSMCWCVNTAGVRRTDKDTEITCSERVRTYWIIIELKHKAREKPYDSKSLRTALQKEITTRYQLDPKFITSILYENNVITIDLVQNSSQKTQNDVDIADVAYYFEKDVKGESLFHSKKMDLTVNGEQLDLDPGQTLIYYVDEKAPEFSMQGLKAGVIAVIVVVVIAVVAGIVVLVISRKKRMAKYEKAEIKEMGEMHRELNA

[3] = target: T1, Ep-CAM (Epithelial Cell Adhesion …); assay: flow cytometry, 10 µg/mL VB6-845 on RL95-2 cells (endometrial), anti-His detection; ± SEM
[4] = target: T1, Ep-CAM (Epithelial Cell Adhesion …); assay: cell-based or functional assay
[5] = target: T1, Ep-CAM (Epithelial Cell Adhesion …); assay: flow cytometry, 10 µg/mL VB6-845 on C-33A cells (cervical; Ep-CAM status of the line not stated), anti-His detection; ± SEM
[6] = target: T1, Ep-CAM (Epithelial Cell Adhesion …); assay: flow cytometry, 10 µg/mL VB6-845 on HEC-1-A cells (endometrial), anti-His detection; ± SEM
[7] = target: T1, Ep-CAM (Epithelial Cell Adhesion …); assay: flow cytometry, 10 µg/mL VB6-845 on C-4 I cells (cervical), anti-His detection; ± SEM
[8] = target: T1, Ep-CAM (Epithelial Cell Adhesion …); assay: flow cytometry, 10 µg/mL VB6-845 on HT-3 cells (cervical), anti-His detection; ± SEM
[9] = target: T1, Ep-CAM (Epithelial Cell Adhesion …); assay: cell-based or functional assay; remark: listed apart in the source
[10] = target: T1, Ep-CAM (Epithelial Cell Adhesion …); assay: flow cytometry, 10 µg/mL VB6-845 on NIH:OVCAR-3 cells (ovarian, Ep-CAM-positive), anti-His detection; ± SEM
[11] = target: T1, Ep-CAM (Epithelial Cell Adhesion …); assay: flow cytometry, 10 µg/mL VB6-845 on SK-UT-1 cells (endometrial; Ep-CAM status of the line not stated), anti-His detection; ± SEM
[12] = target: T1, Ep-CAM (Epithelial Cell Adhesion …); assay: flow cytometry, 10 µg/mL VB6-845 on SK-OV-3 cells (ovarian), anti-His detection; ± SEM
[13] = system: CAL 27; assay: Flow cytometry reactivity test (Example 7); assay type: binding; conditions: Ep-CAM positive cell line CAL 27
Description: (§1) The flow cytometry tests were conducted by incubating the constructs or control with 0.45×10^6 cells for an hour on ice. After washing, cell surface bound constructs were detected with a rabbit anti-bouganin (for FIG. 10A) or mouse anti-His tag (FIG. 10B) for an hour on ice. The cells were washed and incubated with FITC-conjugated sheep anti-rabbit IgG (FIG. 10A) and FITC-conjugated sheep anti-mouse (IgG) (FIG. 10B) for 30 minutes on ice. Subsequently the cells were washed, resuspended in PBS 5% FCS containing propidium iodide for assessment of antibody binding by flow cytometry.

[14] = system: A-375; assay: Flow cytometry reactivity test (Example 7); assay type: binding; conditions: Ep-CAM-negative cell line A-375
Description: as §1

[15] = system: NIH:OVCAR-3; assay: Flow cytometry reactivity test (Example 7); assay type: binding; conditions: Ep-CAM positive cell line NIH:OVCAR-3
Description: as §1

B1: scFv 845: the Ep-CAM antibody of VB6-845, head prints scFv 845 (IgG) (antibody, chains of the INN, looked up, V domains shown)
VH: EVQLVQSGPGLVQPGGSVRISCAASGYTFTNYGMNWVKQAPGKGLEWMGWINTYTGESTYADSFKGRFTFSLDTSASAAYLQINSLRAEDTAVYYCARFAIKGDYWGQGTLLTVSS
VL: DIQMTQSPSSLSASVGDRVTITCRSTKSLLHSNGITYLYWYQQKPGKAPKLLIYQMSNLASGVPSRFSSSGSGTDFTLTISSLQPEDFATYYCAQNLEIPRTFGQGTKVELK
modifications: scFv
- Binding for scFv 845 (IgG): mean fold-increase in median fluorescence over the control antibody ([1]; Bladder, 14 cell lines): 59.6 fold
- Binding for scFv 845 (IgG): mean fold-increase in median fluorescence over the control antibody ([1]; Cervical, 3 cell lines): 37.5 fold
- Binding for scFv 845 (IgG): mean fold-increase in median fluorescence over the control antibody ([1]; Endometrial, 1 cell line): 23.8 fold
- Binding for scFv 845 (IgG): mean fold-increase in median fluorescence over the control antibody ([1]; Esophageal, 3 cell lines): 72.4 fold
- Binding for scFv 845 (IgG): mean fold-increase in median fluorescence over the control antibody ([1]; Gastric, 3 cell lines): 148.9 fold
- Binding for scFv 845 (IgG): mean fold-increase in median fluorescence over the control antibody ([1]; Head and Neck, 2 cell lines): 11.4 fold
- Binding for scFv 845 (IgG): mean fold-increase in median fluorescence over the control antibody ([1]; Kidney, 3 cell lines): 9.4 fold
- Binding for scFv 845 (IgG): mean fold-increase in median fluorescence over the control antibody ([1]; Lung, 3 cell lines): 16.4 fold
- Binding for scFv 845 (IgG): mean fold-increase in median fluorescence over the control antibody ([1]; Melanoma, 3 cell lines): 1.6 fold
- Binding for scFv 845 (IgG): mean fold-increase in median fluorescence over the control antibody ([1]; Ovarian, 2 cell lines): 84.1 fold
- Binding for scFv 845 (IgG): mean fold-increase in median fluorescence over the control antibody ([1]; Pancreas, 3 cell lines): 5.5 fold
- Binding for scFv 845 (IgG): mean fold-increase in median fluorescence over the control antibody ([1]; Prostate, 5 cell lines): 50.1 fold

B2: VB6-845 (Fab)
chain 1: EVQLVQSGPGLVQPGGSVRISCAASGYTFTNYGMNWVKQAPGKGLEWMGWINTYTGESTYADSFKGRFTFSLDTSASAAYLQINSLRAEDTAVYYCARFAIKGDYWGQGTLLTVSSASTKGPSVFPLAPSSKSTSGGTAALGCLVKDYFPEPVTVSWNSGALTSGVHTFPAVLQSSGLYSLSSVVTVPSSSLGTQTYICNVNHKPSNTKVDKKVEPKSCTRHRQPRGWEQLYNTVSFNLGEAYEYPTFIQDLRNELAKGTPVCQLPVTLQTIADDKRFVLVDITTTSKKTVKVAIDVTDVYVVGYQDKWDGKDRAVFLDKVPTVATSKLFPGVTNRVTLTFDGSYQKLVNAAKADRKALELGVNKLEFSIEAIHGKTINGQEAAKFFLIVIQMVSEAARFKYIETEVVDRGLYGSFKPNFKVLNLENNWGDISDAIHKSSPQCTTINPALQLISPSNDPWVVNKVSQISPDMGILKFKSSK
chain 2: HHHHHHDIQMTQSPSSLSASVGDRVTITCRSTKSLLHSNGITYLYWYQQKPGKAPKLLIYQMSNLASGVPSRFSSSGSGTDFTLTISSLQPEDFATYYCAQNLEIPRTFGQGTKVELKRTVAAPSVFIFPPSDEQLKSGTASVVCLLNNFYPREAKVQWKVDNALQSGNSQESVTEQDSKDSTYSLSSTLTLSKADYEKHKVYACEVTHQGLSSPVTKSFNRGEC
notes: also called Fab anti-Ep-CAM-de-bouganin (Bou156) construct
- fold-increase in MF [2]: 1.1 fold
- fold-increase in MF [3]: 4.9 fold
- IC50 nM, MTS cytotoxicity assay, C-4 I cells (VB6-845 70% pure) [4]: 1.7 nM
- IC50 nM, MTS cytotoxicity assay, Caov-3 cells (VB6-845 70% pure) [4]: 1.3 nM
- IC50 nM, MTS cytotoxicity assay, HEC-1-A cells (VB6-845 70% pure) [4]: 43 nM
- IC50 nM, MTS cytotoxicity assay, HT-3 cells (VB6-845 70% pure) [4]: 23 nM
- IC50 nM, MTS cytotoxicity assay, KLE cells (VB6-845 70% pure) [4]: > 100 nM
- IC50 nM, MTS cytotoxicity assay, ME-180 cells (VB6-845 70% pure) [4]: 37 nM
- IC50 nM, MTS cytotoxicity assay, MS751 cells (VB6-845 70% pure) [4]: 0.43 nM
- IC50 nM, MTS cytotoxicity assay, NIH-OVCAR-3 cells (VB6-845 70% pure) [4]: 3.4 nM
- IC50 nM, MTS cytotoxicity assay, RL95-2 cells (VB6-845 70% pure) [4]: 100 nM
- IC50 nM, MTS cytotoxicity assay, SK-OV-3 cells (VB6-845 70% pure) [4]: > 100 nM
- fold-increase in MF [5]: 1.1 fold
- fold-increase in MF [6]: 42.3 fold
- fold-increase in MF [7]: 6.8 fold
- fold-increase in MF [8]: 29.1 fold
- IC50 nM, MTS cytotoxicity assay, NIH:OVCAR-3 cells (VB6-845 90% pure) [9]: 1 nM
- fold-increase in MF [10]: 33.6 fold
- fold-increase in MF [11]: 1.1 fold
- fold-increase in MF [12]: 4.3 fold

B3: VB6-845-CL-de-bouganin: Fab anti-Ep-CAM de-bouganin construct, Bou156 linked at the C-terminus of the CL domain (protein)
chain 1: HHHHHHEVQLVQSGPGLVQPGGSVRISCAASGYTFTNYGMNWVKQAPGKGLEWMGWINTYTGESTYADSFKGRFTFSLDTSASAAYLQINSLRAEDTAVYYCARFAIKGDYWGQGTLLTVSSASTKGPSVFPLAPSSKSTSGGTAALGCLVKDYFPEPVTVSWNSGALTSGVHTFPAVLQSSGLYSLSSVVTVPSSSLGTQTYICNVNHKPSNTKVDKKVEPKSC
chain 2: DIQMTQSPSSLSASVGDRVTITCRSTKSLLHSNGITYLYWYQQKPGKAPKLLIYQMSNLASGVPSRFSSSGSGTDFTLTISSLQPEDFATYYCAQNLEIPRTFGQGTKVELKRTVAAPSVFIFPPSDEQLKSGTASVVCLLNNFYPREAKVQWKVDNALQSGNSQESVTEQDSKDSTYSLSSTLTLSKADYEKHKVYACEVTHQGLSSPVTKSFNRGECTRHRQPRGWEQLYNTVSFNLGEAYEYPTFIQDLRNELAKGTPVCQLPVTLQTIADDKRFVLVDITTTSKKTVKVAIDVTDVYVVGYQDKWDGKDRAVFLDKVPTVATSKLFPGVTNRVTLTFDGSYQKLVNAAKADRKALELGVNKLEFSIEAIHGKTINGQEAAKFFLIVIQMVSEAARFKYIETEVVDRGLYGSFKPNFKVLNLENNWGDISDAIHKSSPQCTTINPALQLISPSNDPWVVNKVSQISPDMGILKFKSSK
- shift in median fluorescence [13]: marked shift in median fluorescence
- shift in median fluorescence [14]: No shift in median fluorescence
- shift in median fluorescence [15]: marked shift in median fluorescence
